Data: the supplement of paper PMC9170038

Tested on: MS2 coat protein
Experiment: apparent KD of MS2 coat protein; designed switch direction (-1 OFF switch, 1 ON switch): -1; higher = weaker reporter binding
In short: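 Each step of the titration lasted 0.8–1.5 h at the lowest concentration and 10–20 min at the highest. The protein, SNAP-549-labelled MS2 coat protein, went from 0.7 or 1.5 nM doubling to 3 µM over RNA switches transcribed on Illumina chips by stalled E. coli RNA polymerase. Normalised cluster fluorescence was curve-fitted, and the per-design median over clusters is given as apparent KD.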

[1] = Eterna round: R95, input ligand: FMN 200 uM
[2] = Eterna round: R95, input ligand: microRNA oligo, concentration not stated
[3] = Eterna round: R95, input ligand: none
[4] = input ligand: microRNA oligo, concentration not stated

GCCAGAGCAGGAUAUUCAAUAAUUCACAUGAGGAUCACCCAUGUCCAGCGAAAGCUAGGAGGAGAAGGGCUCUGGC [Fiskers Ex 5 - 4] (puzzle: Exclusion 5)
apparent KD of MS2 coat protein [1]: 0.0152 µM | apparent KD of MS2 coat protein [2]: 0.0172 µM | apparent KD of MS2 coat protein [3]: 0.0178 µM

GCCAGAGCAGGAUAUUCAAUAUAUCACAUGAGGAUCACCCAUGUCCAGCGAAAGCUGGAGGGAGAAGGGCUCUGGC [Fiskers Ex 5 - 16] (puzzle: Exclusion 5)
apparent KD of MS2 coat protein [1]: 0.0995 µM | apparent KD of MS2 coat protein [2]: 0.416 µM | apparent KD of MS2 coat protein [3]: 0.39 µM

GCCAGUGCAGGAUAUUCAAUAAUUCACAUGAGGAUCACCCAUGUCCAGCGAAAGCUGGAAGGAGAAGGGCACUGGC [Mat - Exclusion 5 - Eli mod - D85] (puzzle: Exclusion 5)
apparent KD of MS2 coat protein [1]: 0.0102 µM | apparent KD of MS2 coat protein [2]: 0.0128 µM | apparent KD of MS2 coat protein [3]: 0.0146 µM

GCCCGUGCGGAGGAUAUUGAUAUCCCAGUCUAUCAAGAAGGCUGCACAUGAGGAUCACCCAUGUGACCUGUGCU [Retiqule] (puzzle: Exclusion 6)
apparent KD of MS2 coat protein [2]: 0.0158 µM

GCCCGUGGGCAAGGAUAUCCUACGCUGUUCUGGUUCGUGUCUGUCACAUGAGGAUCACCCAUGUGGGAGAAGGUGCACCAGGGU [Design 52] (Eterna round: R96, puzzle: Exclusion NG 2)
apparent KD of MS2 coat protein (input ligand: FMN 200 uM): 0.0135 µM | apparent KD of MS2 coat protein [4]: 0.0107 µM | apparent KD of MS2 coat protein (input ligand: none): 0.0144 µM

GCCCGUGGGCAAGGAUAUCCUACGCUGUUCUGGUUCGUGUCUGUCACAUGAGGAUCACCCAUGUGGGAGAAGGUGCACUAGGGU [Design 53] (Eterna round: R96, puzzle: Exclusion NG 2)
apparent KD of MS2 coat protein (input ligand: FMN 200 uM): 0.0197 µM | apparent KD of MS2 coat protein [4]: 0.0111 µM | apparent KD of MS2 coat protein (input ligand: none): 0.0169 µM

GCCCGUGGGCAAGGAUAUCCUACGCUGUUCUGGUUCGUGUCUGUCACAUGAGGAUCACCCAUGUGGGAGAAGGUGCAUUUGGGU [Design 55] (Eterna round: R96, puzzle: Exclusion NG 2)
apparent KD of MS2 coat protein (input ligand: FMN 200 uM): 0.0141 µM | apparent KD of MS2 coat protein [4]: 0.0111 µM | apparent KD of MS2 coat protein (input ligand: none): 0.0173 µM

GCCGAAAAUGUGAGGAUAUACCUAUGGAUACAUAGGUAGAAGGCACAUGAGGAUCACCCAUGUGUCCAAACGGC [Eli bmx4 4.22] (Eterna round: R97, puzzle: Brourd's mod of Exclusion 4)
apparent KD of MS2 coat protein (input ligand: FMN 200 uM): 0.0582 µM | apparent KD of MS2 coat protein (input ligand: none): 0.0145 µM

GCCGAAAGCGUAGGAUAUCGAAUAAAGCGGAAACGCAAGACAUGAGGAUCACCCAUGUGUCCGGACGAGAAGGGCGAAAGCGGC [EXNG2 V2 a] (Eterna round: R96, puzzle: Exclusion NG 2)
apparent KD of MS2 coat protein (input ligand: FMN 200 uM): 0.0334 µM | apparent KD of MS2 coat protein [4]: 0.0271 µM | apparent KD of MS2 coat protein (input ligand: none): 0.0343 µM

GCCGAUUAAGUCAGGAUAUACCUAUGGAUACAUAGGUAGAAGGGACAUGAGGAUCACCCAUGUUCCUCAUCGGC [Fiskers BMX 4 - 12] (puzzle: Brourd's mod of Exclusion 4)
apparent KD of MS2 coat protein [1]: 0.0416 µM | apparent KD of MS2 coat protein [2]: 0.0135 µM | apparent KD of MS2 coat protein [3]: 0.0169 µM

GCCGCGCGAGGAUAUACAUGAGGAUCACCCAUGUGAAAUUAUAGUGAGGAAAUGAAAAGUAGAAGGCGCGCGGA [Mod of Mat 19 - Jieux - Exclusion 3] (Eterna round: R97, puzzle: Exclusion 3)
apparent KD of MS2 coat protein (input ligand: FMN 200 uM): 0.258 µM | apparent KD of MS2 coat protein (input ligand: none): 0.037 µM

GCCGUCGUUGUGAGGAUAUGCCUAUGGAUACGUAGGCAGAAGGCACAUGAGGAUCACCCAUGUCCAAAGACGGC [JL-BMX4-4.28 Eli mod] (Eterna round: R97, puzzle: Brourd's mod of Exclusion 4)
apparent KD of MS2 coat protein (input ligand: FMN 200 uM): 1 µM | apparent KD of MS2 coat protein (input ligand: none): 0.101 µM

GCCGUUGAAGGAUAUGCUGAACUUGAGGUGCGUCCAUCCACACAUGAGGAUCACCCAUGUAGAAGGUCAACGGA [Eternabot (L2) Solution 67] (Eterna round: R97, puzzle: Exclusion 2)
apparent KD of MS2 coat protein (input ligand: FMN 200 uM): 0.456 µM | apparent KD of MS2 coat protein (input ligand: none): 0.287 µM

GCCUAACAUGAGGAUCACCCAUGUAAGGAUAUGAUUAGUCGUUUGUAAGCAGCGCGACUCAGAAGGUACUUGGG [Eternabot (L1) Solution 34] (Eterna round: R97, puzzle: Exclusion 1)
apparent KD of MS2 coat protein (input ligand: FMN 200 uM): 0.072 µM | apparent KD of MS2 coat protein (input ligand: none): 0.0254 µM

GCCUCACUUGAGGAUCACCCAAGUCAGGAUAUAUCACUAGCGUGGAAACCACGCUGGCAUAGAAGGGACAAAGA [Ergeeddi] (Eterna round: R97, puzzle: Exclusion 1)
apparent KD of MS2 coat protein (input ligand: FMN 200 uM): 0.0271 µM | apparent KD of MS2 coat protein (input ligand: none): 0.0173 µM

GCCUCUCAUGUGAGGAUAUCCGGACUAUACAGACAGGAGAAGGCACAUGAGGAUCACCCAUGUCACGCACACUU [BmEX4 B.5] (Eterna round: R97, puzzle: Brourd's mod of Exclusion 4)
apparent KD of MS2 coat protein (input ligand: FMN 200 uM): 0.0271 µM | apparent KD of MS2 coat protein (input ligand: none): 0.189 µM

GCCUGCUGGCGAGGAUAUUCUGUGCGGUUCCGGCUCGUGUCUGUUACAUGAGGAUCACCCAUGUGGGAGAAGGUGUCUGUGGCC [Design 100] (Eterna round: R96, puzzle: Exclusion NG 2)
apparent KD of MS2 coat protein (input ligand: FMN 200 uM): 0.0125 µM | apparent KD of MS2 coat protein [4]: 0.0101 µM | apparent KD of MS2 coat protein (input ligand: none): 0.0147 µM

GCCUGUAGUGUGAGGAUAUGCUGCUCCAUAGAGCAGCAGAAGGCACAUGAGGAUCACCCAUGUGAUAACAGGCA (Eterna round: R97, puzzle: Brourd's mod of Exclusion 4)
apparent KD of MS2 coat protein (input ligand: FMN 200 uM): 0.443 µM | apparent KD of MS2 coat protein (input ligand: none): 0.151 µM

GCCUUAUCCGUCAGGAUAUACAGCCGCUCCCUGUUGUAGAAGGGACAUGAGGAUCACCCAUGUACGUACCAUUG [alecazam6] (Eterna round: R97, puzzle: Brourd's mod of Exclusion 4)
apparent KD of MS2 coat protein (input ligand: FMN 200 uM): 0.0318 µM | apparent KD of MS2 coat protein (input ligand: none): 0.0391 µM

GCGAGAUGAGGAUAUUAGUGGAAUGACAUGAGGAUCACCCAUGUUACGCAUGUCGAGCUUUGAGAAGGCAUUACGA [Eternabot (L2) Solution 75] (Eterna round: R97, puzzle: Exclusion 5)
apparent KD of MS2 coat protein (input ligand: FMN 200 uM): 0.0262 µM | apparent KD of MS2 coat protein (input ligand: none): 0.0313 µM

GCGAGGUUAGGAUAUGCUGGCGUGGACUUGAGGAUCACCCAAGUGACUGCGGGCUAGGGCGCAGAAGGGACAAAAU [Usti] (Eterna round: R97, puzzle: Exclusion 5)
apparent KD of MS2 coat protein (input ligand: FMN 200 uM): 0.0451 µM | apparent KD of MS2 coat protein (input ligand: none): 0.0456 µM

GCGCACCUACCAAAAGGUAGGACAACAUGAGGAUCACCCAUGUAGGAUAUCGAUUGCUUUGCAGUCGAGAAGGACAUGAUGCGC [JL ENG3 3.80 Mod 7] (Eterna round: R96, puzzle: Exclusion NG 3)
apparent KD of MS2 coat protein (input ligand: FMN 200 uM): 0.111 µM | apparent KD of MS2 coat protein [4]: 0.0259 µM | apparent KD of MS2 coat protein (input ligand: none): 0.0347 µM

GCGCACCUACCAAAAGGUAGGCUAACAUGAGGAUCACCCAUGUAGGAUAUCGAUUGCUUUGCAGUCGAGAAGGACGUGAUGCGC [JL ENG3 3.80 Mod 19] (Eterna round: R96, puzzle: Exclusion NG 3)
apparent KD of MS2 coat protein (input ligand: FMN 200 uM): 0.0259 µM | apparent KD of MS2 coat protein [4]: 0.0173 µM | apparent KD of MS2 coat protein (input ligand: none): 0.0233 µM

GCGCACCUACCAAAAGGUAGGUCCACAUGAGGAUCACCCAUGUAGGAUAUCGAUUGCUUUGCAGUCGAGAAGGACGUGAUGCGC [JL ENG3 3.80 Mod 16] (Eterna round: R96, puzzle: Exclusion NG 3)
apparent KD of MS2 coat protein (input ligand: FMN 200 uM): 0.0516 µM | apparent KD of MS2 coat protein [4]: 0.0273 µM | apparent KD of MS2 coat protein (input ligand: none): 0.0323 µM

GCGCCAUCGUGAGAUGGCGUAACUACAUGAGGAUCACCCAUGUAGGAUAUCGAUUGCUUUGCAGUCGAGAAGGGCAAGGGAUAU [JL ENG3 3.87] (Eterna round: R96, puzzle: Exclusion NG 3)
apparent KD of MS2 coat protein (input ligand: FMN 200 uM): 0.0153 µM | apparent KD of MS2 coat protein [4]: 0.0135 µM | apparent KD of MS2 coat protein (input ligand: none): 0.0169 µM

GCGCCAUCGUGAGAUGGCGUAACUACAUGAGGAUCACCCAUGUAGGAUAUCGAUUGCUUUGCAGUCGAGAAGGGCGAGGGAUUU [JL ENG3 3.89] (Eterna round: R96, puzzle: Exclusion NG 3)
apparent KD of MS2 coat protein (input ligand: FMN 200 uM): 0.0181 µM | apparent KD of MS2 coat protein [4]: 0.0132 µM | apparent KD of MS2 coat protein (input ligand: none): 0.0176 µM

GCGCCAUCGUGAGAUGGCGUAAGUACAUGAGGAUCACCCAUGUAGGAUAUCGAUUGCUUUGCAGUCGAGAAGGGCGUGAUAAGU [JL ENG3 3.81] (Eterna round: R96, puzzle: Exclusion NG 3)
apparent KD of MS2 coat protein (input ligand: FMN 200 uM): 0.0973 µM | apparent KD of MS2 coat protein [4]: 0.0641 µM | apparent KD of MS2 coat protein (input ligand: none): 0.0769 µM

GCGCCAUCGUGAGAUGGCGUAAUUACAUGAGGAUCACCCAUGUAGGAUAUCGAUUGCUUUGCAGUCGAGAAGGGCAUGAUAAGU [JL ENG3 3.79] (Eterna round: R96, puzzle: Exclusion NG 3)
apparent KD of MS2 coat protein (input ligand: FMN 200 uM): 0.0496 µM | apparent KD of MS2 coat protein [4]: 0.0346 µM | apparent KD of MS2 coat protein (input ligand: none): 0.0433 µM

GCGCCAUCGUGAGAUGGCGUACCGACAUGAGGAUCACCCAUGUAGGAUAUCGAUUGCUUUGCAGUCGAGAAGGGCAUGAUAAGU [JL ENG3 3.77] (Eterna round: R96, puzzle: Exclusion NG 3)
apparent KD of MS2 coat protein (input ligand: FMN 200 uM): 0.0209 µM | apparent KD of MS2 coat protein [4]: 0.0134 µM | apparent KD of MS2 coat protein (input ligand: none): 0.0214 µM

GCGCGAAGCUAGGAUAUGGGAGCGUCUUCGCUCCCAGAAGGAGCCACAUGAGGAUCACCCAUGUGGUGAUCCUG [eternacac ex6r4 sub14] (Eterna round: R97, puzzle: Exclusion 6)
apparent KD of MS2 coat protein (input ligand: FMN 200 uM): 0.017 µM | apparent KD of MS2 coat protein (input ligand: none): 0.0165 µM

GCGGAAAACUUAGGAUAUCAGGGCUGUACAUGAGGAUCACCCAUGUGAUAGCUCUAACACGGUCCUGAGAAGGGAGAGCCCGGA [Biorenen] (Eterna round: R96, puzzle: Exclusion NG 2)
apparent KD of MS2 coat protein (input ligand: FMN 200 uM): 0.109 µM | apparent KD of MS2 coat protein [4]: 0.0497 µM | apparent KD of MS2 coat protein (input ligand: none): 0.073 µM

GCGGACAAGAUGGAGACAUCAGAGACAUGAGGAUCACCCAUGUAGGAUAUCGAUUCGAAACGAAUCGAGAAGGGCAUAGUCCGC [JL denovo 2] (Eterna round: R96, puzzle: Exclusion NG 3)
apparent KD of MS2 coat protein (input ligand: FMN 200 uM): 0.0168 µM | apparent KD of MS2 coat protein [4]: 0.0133 µM | apparent KD of MS2 coat protein (input ligand: none): 0.0192 µM
